Measured values reported in patent publication US20140271457A1 (AbbVie / Abbott, published 2014).

Experiments:
[1] = target: Recombinant Human TNF-α/TNFSF1A (human, UniProt P01375 77-233); test: cell-based or functional assay
Recombinant Human β-NGF = Recombinant Human β-NGF (human, UniProt P01138 122-241); test: cell-based or functional assay
Sequence of Recombinant Human β-NGF (P01138 122-241 limits assumed): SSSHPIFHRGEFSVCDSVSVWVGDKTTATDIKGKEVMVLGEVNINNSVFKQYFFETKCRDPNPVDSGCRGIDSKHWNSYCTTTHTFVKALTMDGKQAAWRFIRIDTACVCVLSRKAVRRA

Sequence of Recombinant Human TNF-α/TNFSF1A (P01375 77-233 limits assumed): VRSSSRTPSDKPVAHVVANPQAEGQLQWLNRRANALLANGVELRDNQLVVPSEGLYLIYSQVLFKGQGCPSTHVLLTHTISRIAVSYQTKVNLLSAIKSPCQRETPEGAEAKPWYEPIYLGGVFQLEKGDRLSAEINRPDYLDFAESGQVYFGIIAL

| Binder | N-Terminal VD huTNFα Neutralization Assay IC50 [1] | C-Terminal VD NGF Neutralization Assay IC50 (Recombinant Human β-NGF) | C-Terminal VD huTNFα Neutralization Assay IC50 [1] | N-Terminal VD NGF Neutralization Assay IC50 (Recombinant Human β-NGF) |
| --- | --- | --- | --- | --- |
| DVD2717 (bispecific antibody, IgG1) VH: EVQLVESGGGLVQPGGSLRLSCAASGFTFSNYGVTWVRQAPGKGLEWVSMIWADGSTHYASSVKGRFTISRDNSKNTLYLQMNSLRAEDTAVYYCAREWQHGPVAYWGQGTLVTVSSASTKGPSVFPLAPEVQLVESGGGLVQPGGSLRLSCAASGFSLTNNNVNWVRQAPGKGLEWVGGVWAGGATDYNSALKSRFTISRDNSKNTAYLQMNSLRAEDTAVYYCARDGGYSSSTLYAMDAWGQGTLVTVSS VL: DIQMTQSPSSLSASVGDRVTITCRASQLVSSAVAWYQQKPGKAPKLLIYWASARHTGVPSRFSGSGSGTDFTLTISSLQPEDFATYYCQQHYKTPFTFGQGTKLEIKRTVAAPDIQMTQSPSSLSASVGDRVTITCRASEDIYNALAWYQQKPGKAPKLLIYNTDTLHTGVPSRFSGSGSGTDYTLTISSLQPEDFATYFCQHYFHYPRTFGQGTKVEIKR | 0.278 nM | 0.936 nM |  |  |
| DVD2767 (bispecific antibody, IgG1) VH: EVQLVESGGGLVQPGGSLRLSCAASGFTFSNYGVEWVRQAPGKGLEWVSGIWADGSTHYADTVKSRFTISRDNSKNTLYLQMNSLRAEDTAVYYCAREWQHGPVAYWGQGTLVTVSSASTKGPSVFPLAPEVQLVESGGGLVQPGGSLRLSCAASGFSLTNNNVNWVRQAPGKGLEWVGGVWAGGATDYNSALKSRFTISRDNSKNTAYLQMNSLRAEDTAVYYCARDGGYSSSTLYAMDAWGQGTLVTVSS VL: DIQMTQSPSSLSASVGDRVTITCKASQLVSSAVAWYQQKPGKAPKLLIYWASTLHTGVPSRFSGSGSGTDFTLTISSLQPEDFATYYCQQHYRTPFTFGQGTKLEIKRTVAAPDIQMTQSPSSLSASVGDRVTITCRASEDIYNALAWYQQKPGKAPKLLIYNTDTLHTGVPSRFSGSGSGTDYTLTISSLQPEDFATYFCQHYFHYPRTFGQGTKVEIKR | 0.01 nM | 0.646 nM |  |  |
| DVD2716 (bispecific antibody, IgG1) VH: EVQLVESGGGLVQPGGSLRLSCAASGFTFSNYGVTWVRQAPGKGLEWVSMIWADGSTHYASSVKGRFTISRDNSKNTLYLQMNSLRAEDTAVYYCAREWQHGPVAYWGQGTLVTVSSASTKGPEVQLVESGGGLVQPGGSLRLSCAASGFSLTNNNVNWVRQAPGKGLEWVGGVWAGGATDYNSALKSRFTISRDNSKNTAYLQMNSLRAEDTAVYYCARDGGYSSSTLYAMDAWGQGTLVTVSS VL: DIQMTQSPSSLSASVGDRVTITCRASQLVSSAVAWYQQKPGKAPKLLIYWASARHTGVPSRFSGSGSGTDFTLTISSLQPEDFATYYCQQHYKTPFTFGQGTKLEIKRTVAAPSVFIFPPDIQMTQSPSSLSASVGDRVTITCRASEDIYNALAWYQQKPGKAPKLLIYNTDTLHTGVPSRFSGSGSGTDYTLTISSLQPEDFATYFCQHYFHYPRTFGQGTKVEIKR | 0.014 nM | 0.624 nM |  |  |
| DVD2764 (bispecific antibody, IgG1) VH: EVQLVESGGGLVQPGGSLRLSCAASGFTFSNYGVEWVRQAPGKGLEWVSGIWADGSTHYADTVKSRFTISRDNSKNTLYLQMNSLRAEDTAVYYCAREWQHGPVAYWGQGTLVTVSSASTKGPEVQLVESGGGLVQPGGSLRLSCAASGFSLTNNNVNWVRQAPGKGLEWVGGVWAGGATDYNSALKSRFTISRDNSKNTAYLQMNSLRAEDTAVYYCARDGGYSSSTLYAMDAWGQGTLVTVSS VL: DIQMTQSPSSLSASVGDRVTITCKASQLVSSAVAWYQQKPGKAPKLLIYWASTLHTGVPSRFSGSGSGTDFTLTISSLQPEDFATYYCQQHYRTPFTFGQGTKLEIKRTVAAPDIQMTQSPSSLSASVGDRVTITCRASEDIYNALAWYQQKPGKAPKLLIYNTDTLHTGVPSRFSGSGSGTDYTLTISSLQPEDFATYFCQHYFHYPRTFGQGTKVEIKR | 0.012 nM | 4.1 nM |  |  |
| DVD2719 (bispecific antibody, IgG1) VH: EVQLVESGGGLVQPGGSLRLSCAASGFSLTNNNVNWVRQAPGKGLEWVGGVWAGGATDYNSALKSRFTISRDNSKNTAYLQMNSLRAEDTAVYYCARDGGYSSSTLYAMDAWGQGTLVTVSSASTKGPEVQLVESGGGLVQPGGSLRLSCAASGFTFSNYGVTWVRQAPGKGLEWVSMIWADGSTHYASSVKGRFTISRDNSKNTLYLQMNSLRAEDTAVYYCAREWQHGPVAYWGQGTLVTVSS VL: DIQMTQSPSSLSASVGDRVTITCRASEDIYNALAWYQQKPGKAPKLLIYNTDTLHTGVPSRFSGSGSGTDYTLTISSLQPEDFATYFCQHYFHYPRTFGQGTKVEIKRTVAAPDIQMTQSPSSLSASVGDRVTITCRASQLVSSAVAWYQQKPGKAPKLLIYWASARHTGVPSRFSGSGSGTDFTLTISSLQPEDFATYYCQQHYKTPFTFGQGTKLEIKR |  |  | 0.126 nM | 0.019 nM |
| DVD2721 (bispecific antibody, IgG1) VH: EVQLVESGGGLVQPGGSLRLSCAASGFSLTNNNVNWVRQAPGKGLEWVGGVWAGGATDYNSALKSRFTISRDNSKNTAYLQMNSLRAEDTAVYYCARDGGYSSSTLYAMDAWGQGTLVTVSSASTKGPEVQLVESGGGLVQPGGSLRLSCAASGFTFSNYGVTWVRQAPGKGLEWVSMIWADGSTHYASSVKGRFTISRDNSKNTLYLQMNSLRAEDTAVYYCAREWQHGPVAYWGQGTLVTVSS VL: DIQMTQSPSSLSASVGDRVTITCRASEDIYNALAWYQQKPGKAPKLLIYNTDTLHTGVPSRFSGSGSGTDYTLTISSLQPEDFATYFCQHYFHYPRTFGQGTKVEIKRTVAAPSVFIFPPDIQMTQSPSSLSASVGDRVTITCRASQLVSSAVAWYQQKPGKAPKLLIYWASARHTGVPSRFSGSGSGTDFTLTISSLQPEDFATYYCQQHYKTPFTFGQGTKLEIKR |  |  | 0.029 nM | 0.041 nM |
| DVD2769 (bispecific antibody, IgG1) VH: EVQLVESGGGLVQPGGSLRLSCAASGFSLTNNNVNWVRQAPGKGLEWVGGVWAGGATDYNSALKSRFTISRDNSKNTAYLQMNSLRAEDTAVYYCARDGGYSSSTLYAMDAWGQGTLVTVSSASTKGPEVQLVESGGGLVQPGGSLRLSCAASGFTFSNYGVEWVRQAPGKGLEWVSGIWADGSTHYADTVKSRFTISRDNSKNTLYLQMNSLRAEDTAVYYCAREWQHGPVAYWGQGTLVTVSS VL: DIQMTQSPSSLSASVGDRVTITCRASEDIYNALAWYQQKPGKAPKLLIYNTDTLHTGVPSRFSGSGSGTDYTLTISSLQPEDFATYFCQHYFHYPRTFGQGTKVEIKRTVAAPDIQMTQSPSSLSASVGDRVTITCKASQLVSSAVAWYQQKPGKAPKLLIYWASTLHTGVPSRFSGSGSGTDFTLTISSLQPEDFATYYCQQHYRTPFTFGQGTKLEIKR |  |  | 0.222 nM | 0.001 nM |
| DVD2722 (bispecific antibody, IgG1) VH: EVQLVESGGGLVQPGGSLRLSCAASGFSLTNNNVNWVRQAPGKGLEWVGGVWAGGATDYNSALKSRFTISRDNSKNTAYLQMNSLRAEDTAVYYCARDGGYSSSTLYAMDAWGQGTLVTVSSASTKGPSVFPLAPEVQLVESGGGLVQPGGSLRLSCAASGFTFSNYGVTWVRQAPGKGLEWVSMIWADGSTHYASSVKGRFTISRDNSKNTLYLQMNSLRAEDTAVYYCAREWQHGPVAYWGQGTLVTVSS VL: DIQMTQSPSSLSASVGDRVTITCRASEDIYNALAWYQQKPGKAPKLLIYNTDTLHTGVPSRFSGSGSGTDYTLTISSLQPEDFATYFCQHYFHYPRTFGQGTKVEIKRTVAAPDIQMTQSPSSLSASVGDRVTITCRASQLVSSAVAWYQQKPGKAPKLLIYWASARHTGVPSRFSGSGSGTDFTLTISSLQPEDFATYYCQQHYKTPFTFGQGTKLEIKR |  |  | 0.19 nM | 0.053 nM |
| DVD2718 (bispecific antibody, IgG1) VH: EVQLVESGGGLVQPGGSLRLSCAASGFSLTNNNVNWVRQAPGKGLEWVGGVWAGGATDYNSALKSRFTISRDNSKNTAYLQMNSLRAEDTAVYYCARDGGYSSSTLYAMDAWGQGTLVTVSSGGGGSGGGGSEVQLVESGGGLVQPGGSLRLSCAASGFTFSNYGVTWVRQAPGKGLEWVSMIWADGSTHYASSVKGRFTISRDNSKNTLYLQMNSLRAEDTAVYYCAREWQHGPVAYWGQGTLVTVSS VL: DIQMTQSPSSLSASVGDRVTITCRASEDIYNALAWYQQKPGKAPKLLIYNTDTLHTGVPSRFSGSGSGTDYTLTISSLQPEDFATYFCQHYFHYPRTFGQGTKVEIKRGGSGGGGSGDIQMTQSPSSLSASVGDRVTITCRASQLVSSAVAWYQQKPGKAPKLLIYWASARHTGVPSRFSGSGSGTDFTLTISSLQPEDFATYYCQQHYKTPFTFGQGTKLEIKR |  |  | 0.249 nM | 0.008 nM |
| DVD2768 (bispecific antibody, IgG1) VH: EVQLVESGGGLVQPGGSLRLSCAASGFSLTNNNVNWVRQAPGKGLEWVGGVWAGGATDYNSALKSRFTISRDNSKNTAYLQMNSLRAEDTAVYYCARDGGYSSSTLYAMDAWGQGTLVTVSSGGGGSGGGGSEVQLVESGGGLVQPGGSLRLSCAASGFTFSNYGVEWVRQAPGKGLEWVSGIWADGSTHYADTVKSRFTISRDNSKNTLYLQMNSLRAEDTAVYYCAREWQHGPVAYWGQGTLVTVSS VL: DIQMTQSPSSLSASVGDRVTITCRASEDIYNALAWYQQKPGKAPKLLIYNTDTLHTGVPSRFSGSGSGTDYTLTISSLQPEDFATYFCQHYFHYPRTFGQGTKVEIKRGGSGGGGSGDIQMTQSPSSLSASVGDRVTITCKASQLVSSAVAWYQQKPGKAPKLLIYWASTLHTGVPSRFSGSGSGTDFTLTISSLQPEDFATYYCQQHYRTPFTFGQGTKLEIKR |  |  | 0.189 nM | 0.003 nM |
| DVD2763 (bispecific antibody, IgG1) VH: EVQLVESGGGLVQPGGSLRLSCAASGFTFSNYGVEWVRQAPGKGLEWVSGIWADGSTHYADTVKSRFTISRDNSKNTLYLQMNSLRAEDTAVYYCAREWQHGPVAYWGQGTLVTVSSGGGGSGGGGSEVQLVESGGGLVQPGGSLRLSCAASGFSLTNNNVNWVRQAPGKGLEWVGGVWAGGATDYNSALKSRFTISRDNSKNTAYLQMNSLRAEDTAVYYCARDGGYSSSTLYAMDAWGQGTLVTVSS VL: DIQMTQSPSSLSASVGDRVTITCKASQLVSSAVAWYQQKPGKAPKLLIYWASTLHTGVPSRFSGSGSGTDFTLTISSLQPEDFATYYCQQHYRTPFTFGQGTKLEIKRGGSGGGGSGDIQMTQSPSSLSASVGDRVTITCRASEDIYNALAWYQQKPGKAPKLLIYNTDTLHTGVPSRFSGSGSGTDYTLTISSLQPEDFATYFCQHYFHYPRTFGQGTKVEIKR | 0.004 nM | 0.871 nM |  |  |
